In the supplement of paper PMC9942255:

Test system: Bacillus subtilis DB104 (SP-AmyQ fusion secretion)
Test: AmyQ secretion efficiency, weighted average sort bin (1 = best secretion, 10 = worst) (bin number (weighted average, 1-10)); higher = lower secretion efficiency
Summary of the method: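 The secretion score gives the average bin number weighted by read frequency and normalised to beads per bin, with low-abundance sequences excluded. Bins were 10 equally populated green/red fluorescence ratio fractions of occupied ~65 nL alginate beads, sorted by large-particle flow cytometry. The beads held fluorescein-starch and about 0.3 cells each of an amyE-integrated B. subtilis DB104 library fusing designed signal peptides to mature AmyQ, and they were grown about 13 h at room temperature and stained with nile red before sorting and Illumina sequencing.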

Row | Sequence | AmyQ secretion efficiency
1 | MVKKWYYQSKSSLSVLSTFTYSASAVGV | 5.88
2 | MYGKIALTLCPAIVGSLLFFTAPASAHVS | 2.26
3 | MYKGWLIQFAVMLSVLSTFTYSASAVGV | 5.73
4 | MYKKFVPFAVFLFLFFVSFEMMENCHALDY | 7.9
5 | MYKKFVPFAVFLFLFFVSFEMMENPHALDY | 7.08
6 | MYKKFVPFAVFLFLFFVSFRKMRNPHALDY | 6.42
7 | MYKKFVPFRRRKKRFFVSFEMMENPHALDY | 7.64
8 | MYKKFVPRTQYSRLFFVSFEMMENPHALDY | 7.24
9 | MYKKFVPTYTKYFLFFVSFEMMENPHALDY | 6.52
10 | MYNRKRRVCFLAALIMAFTLPNSVYAQKP | 2.73
11 | MYSAIIIAIIAAVIVIAALITFNVRNASPG | 7.59
12 | MYSKGLLAGALTATVLFGTCAVDVPGIISPKTAEAASQ | 2.38
